# Where two headings read alike, the source gives them in different places.
# T1: MsCAPP PP domain (MsPP111-328) (Marinitoga sp. 1137, UniProt PDB:7QAZ_1 1-219)
# T1 sequence: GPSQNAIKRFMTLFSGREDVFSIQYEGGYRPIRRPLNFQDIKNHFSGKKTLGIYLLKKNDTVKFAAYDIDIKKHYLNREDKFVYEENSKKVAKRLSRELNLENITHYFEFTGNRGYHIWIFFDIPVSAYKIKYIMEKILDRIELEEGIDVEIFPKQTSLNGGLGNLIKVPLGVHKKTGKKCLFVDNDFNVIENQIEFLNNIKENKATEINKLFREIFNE
# Assays:
# [1] = biological target: T1, MsCAPP PP domain (MsPP111-328); experiment: X-ray crystallography
# [2] = biological target: T1, MsCAPP PP domain (MsPP111-328); experiment: X-ray crystallography; remark: listed apart in the source
Binder,binding result [1],binding result [2]
AAAAATCAA (ssDNA) [primer initiation template 9-mer],binds,
dsDNA 6-mer (dsDNA) DNA 1: CGTGCG DNA 2: CGTGCG,,binds
